Each block holds one binder with its values, some of them ahead of it.
How the values were obtained:
[1] = target: SMC2 (in recombinant human condensin II) (human, UniProt O95347 1-1197); assay: cryo-EM structure
[2] = target: SMC4 (in recombinant human condensin II) (human, UniProt Q9NTJ3 2-1288); assay: cryo-EM structure
[3] = target: T1, CAP-D3 (in recombinant human condensin II) (human, UniProt P42695 1-1498); assay: cryo-EM structure
T1 sequence: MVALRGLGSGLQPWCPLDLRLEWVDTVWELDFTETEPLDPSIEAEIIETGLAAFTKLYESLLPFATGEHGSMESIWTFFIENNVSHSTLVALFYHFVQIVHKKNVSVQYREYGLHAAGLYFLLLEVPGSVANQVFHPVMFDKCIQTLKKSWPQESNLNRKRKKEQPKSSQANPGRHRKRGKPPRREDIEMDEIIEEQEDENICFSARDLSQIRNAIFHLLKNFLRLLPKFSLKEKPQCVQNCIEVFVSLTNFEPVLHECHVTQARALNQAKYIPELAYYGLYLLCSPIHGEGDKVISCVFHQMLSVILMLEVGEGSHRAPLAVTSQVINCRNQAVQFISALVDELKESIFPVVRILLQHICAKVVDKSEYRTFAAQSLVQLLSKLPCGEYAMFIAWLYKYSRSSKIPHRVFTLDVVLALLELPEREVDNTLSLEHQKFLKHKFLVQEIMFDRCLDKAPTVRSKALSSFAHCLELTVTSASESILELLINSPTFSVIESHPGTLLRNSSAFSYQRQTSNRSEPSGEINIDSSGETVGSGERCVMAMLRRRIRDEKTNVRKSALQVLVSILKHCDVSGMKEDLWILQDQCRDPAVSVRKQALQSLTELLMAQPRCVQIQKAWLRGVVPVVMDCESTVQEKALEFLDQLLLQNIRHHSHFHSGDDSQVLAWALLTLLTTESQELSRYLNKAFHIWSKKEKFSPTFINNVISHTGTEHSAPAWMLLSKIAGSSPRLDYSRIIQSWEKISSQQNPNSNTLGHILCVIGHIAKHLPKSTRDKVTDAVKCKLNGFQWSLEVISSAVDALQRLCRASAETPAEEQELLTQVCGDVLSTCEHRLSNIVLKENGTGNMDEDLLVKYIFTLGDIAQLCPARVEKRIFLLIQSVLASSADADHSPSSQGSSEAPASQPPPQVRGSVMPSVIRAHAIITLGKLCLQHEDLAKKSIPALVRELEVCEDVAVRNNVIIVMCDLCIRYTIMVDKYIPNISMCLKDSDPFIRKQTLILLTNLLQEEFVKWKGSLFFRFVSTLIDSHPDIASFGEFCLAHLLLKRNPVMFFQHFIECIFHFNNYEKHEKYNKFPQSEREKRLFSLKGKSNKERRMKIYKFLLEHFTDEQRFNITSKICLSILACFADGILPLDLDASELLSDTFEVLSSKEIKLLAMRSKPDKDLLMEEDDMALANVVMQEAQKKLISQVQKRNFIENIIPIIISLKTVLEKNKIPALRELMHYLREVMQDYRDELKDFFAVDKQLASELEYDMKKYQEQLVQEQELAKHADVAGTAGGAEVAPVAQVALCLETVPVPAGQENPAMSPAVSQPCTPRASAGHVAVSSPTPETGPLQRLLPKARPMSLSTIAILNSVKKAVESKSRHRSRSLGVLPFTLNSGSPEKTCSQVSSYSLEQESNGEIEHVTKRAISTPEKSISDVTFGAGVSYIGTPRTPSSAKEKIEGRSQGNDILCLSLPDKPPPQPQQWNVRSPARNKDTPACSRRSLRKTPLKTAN

[4] = target: T2, CAP-G2 (in recombinant human condensin II) (human, UniProt Q86XI2 1-1143); assay: cryo-EM structure
T2 sequence: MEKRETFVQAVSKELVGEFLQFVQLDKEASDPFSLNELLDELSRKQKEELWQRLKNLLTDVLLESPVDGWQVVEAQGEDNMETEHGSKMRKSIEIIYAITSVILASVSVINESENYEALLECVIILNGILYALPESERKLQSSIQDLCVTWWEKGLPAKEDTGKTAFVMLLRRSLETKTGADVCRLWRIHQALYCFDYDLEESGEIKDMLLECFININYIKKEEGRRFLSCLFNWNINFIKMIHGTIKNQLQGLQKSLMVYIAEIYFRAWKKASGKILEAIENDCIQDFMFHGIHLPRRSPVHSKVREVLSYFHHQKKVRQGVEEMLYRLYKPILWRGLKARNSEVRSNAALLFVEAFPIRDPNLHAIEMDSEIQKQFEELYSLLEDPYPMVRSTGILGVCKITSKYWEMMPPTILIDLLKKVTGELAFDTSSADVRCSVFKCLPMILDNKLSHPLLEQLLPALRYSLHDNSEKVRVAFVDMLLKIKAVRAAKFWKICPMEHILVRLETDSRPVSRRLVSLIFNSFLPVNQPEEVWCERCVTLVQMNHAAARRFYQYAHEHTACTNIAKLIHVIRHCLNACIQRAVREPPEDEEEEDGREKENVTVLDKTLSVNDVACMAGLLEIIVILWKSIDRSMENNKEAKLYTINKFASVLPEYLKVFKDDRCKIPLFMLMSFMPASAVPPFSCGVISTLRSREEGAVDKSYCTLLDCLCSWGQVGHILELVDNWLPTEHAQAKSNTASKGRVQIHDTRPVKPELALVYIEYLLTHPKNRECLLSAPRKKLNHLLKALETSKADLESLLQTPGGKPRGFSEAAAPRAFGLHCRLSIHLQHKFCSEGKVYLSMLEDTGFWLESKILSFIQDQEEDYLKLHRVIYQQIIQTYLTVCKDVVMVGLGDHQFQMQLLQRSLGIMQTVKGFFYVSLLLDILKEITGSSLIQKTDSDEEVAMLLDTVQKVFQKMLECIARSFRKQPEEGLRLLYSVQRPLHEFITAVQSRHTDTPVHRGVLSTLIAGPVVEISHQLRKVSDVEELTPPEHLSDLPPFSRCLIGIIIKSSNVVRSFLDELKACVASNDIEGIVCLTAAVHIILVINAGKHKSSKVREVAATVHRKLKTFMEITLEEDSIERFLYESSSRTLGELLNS

[5] = target: T2, CAP-G2 (in recombinant human condensin …); assay: cross-linking
[6] = target: condensin II pentamer (recombinant, human) (human, UniProt O95347;Q9NTJ3;Q6IBW4;P42695;Q86XI2); assay: cross-linking
condensin II pentamer (recombinant, human), sequence (O95347 whole entry, chain 1 of 2): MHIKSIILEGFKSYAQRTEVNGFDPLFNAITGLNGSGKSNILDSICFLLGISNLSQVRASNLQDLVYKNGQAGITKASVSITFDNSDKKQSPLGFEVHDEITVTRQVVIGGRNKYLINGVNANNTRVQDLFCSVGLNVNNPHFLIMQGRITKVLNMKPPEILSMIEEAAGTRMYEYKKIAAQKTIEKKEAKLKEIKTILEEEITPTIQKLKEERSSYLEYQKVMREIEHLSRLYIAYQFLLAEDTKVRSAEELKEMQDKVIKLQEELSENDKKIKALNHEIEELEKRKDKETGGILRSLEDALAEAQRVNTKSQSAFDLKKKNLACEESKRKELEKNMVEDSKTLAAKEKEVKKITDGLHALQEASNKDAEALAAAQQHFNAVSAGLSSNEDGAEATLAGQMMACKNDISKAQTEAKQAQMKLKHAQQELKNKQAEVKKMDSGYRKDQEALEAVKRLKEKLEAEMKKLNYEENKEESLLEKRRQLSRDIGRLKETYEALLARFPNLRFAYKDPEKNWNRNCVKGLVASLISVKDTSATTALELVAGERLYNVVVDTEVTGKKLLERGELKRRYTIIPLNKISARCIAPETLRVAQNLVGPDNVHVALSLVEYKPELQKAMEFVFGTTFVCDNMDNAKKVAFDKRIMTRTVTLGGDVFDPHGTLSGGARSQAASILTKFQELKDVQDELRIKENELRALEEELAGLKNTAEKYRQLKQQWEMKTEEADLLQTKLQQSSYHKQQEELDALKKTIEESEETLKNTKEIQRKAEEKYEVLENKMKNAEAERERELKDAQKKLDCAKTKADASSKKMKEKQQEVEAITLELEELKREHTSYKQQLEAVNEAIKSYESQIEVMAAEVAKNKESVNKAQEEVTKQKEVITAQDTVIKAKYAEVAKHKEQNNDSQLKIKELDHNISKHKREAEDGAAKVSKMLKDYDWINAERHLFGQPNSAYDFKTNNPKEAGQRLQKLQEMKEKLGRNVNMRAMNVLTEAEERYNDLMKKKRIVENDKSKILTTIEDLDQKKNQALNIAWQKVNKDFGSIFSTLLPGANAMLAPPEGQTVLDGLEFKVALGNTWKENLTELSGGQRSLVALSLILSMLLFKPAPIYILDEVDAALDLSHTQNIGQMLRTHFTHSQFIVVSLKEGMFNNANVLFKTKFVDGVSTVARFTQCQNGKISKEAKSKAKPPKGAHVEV
condensin II pentamer (recombinant, human), sequence (Q9NTJ3 2-1288, chain 2 of 2): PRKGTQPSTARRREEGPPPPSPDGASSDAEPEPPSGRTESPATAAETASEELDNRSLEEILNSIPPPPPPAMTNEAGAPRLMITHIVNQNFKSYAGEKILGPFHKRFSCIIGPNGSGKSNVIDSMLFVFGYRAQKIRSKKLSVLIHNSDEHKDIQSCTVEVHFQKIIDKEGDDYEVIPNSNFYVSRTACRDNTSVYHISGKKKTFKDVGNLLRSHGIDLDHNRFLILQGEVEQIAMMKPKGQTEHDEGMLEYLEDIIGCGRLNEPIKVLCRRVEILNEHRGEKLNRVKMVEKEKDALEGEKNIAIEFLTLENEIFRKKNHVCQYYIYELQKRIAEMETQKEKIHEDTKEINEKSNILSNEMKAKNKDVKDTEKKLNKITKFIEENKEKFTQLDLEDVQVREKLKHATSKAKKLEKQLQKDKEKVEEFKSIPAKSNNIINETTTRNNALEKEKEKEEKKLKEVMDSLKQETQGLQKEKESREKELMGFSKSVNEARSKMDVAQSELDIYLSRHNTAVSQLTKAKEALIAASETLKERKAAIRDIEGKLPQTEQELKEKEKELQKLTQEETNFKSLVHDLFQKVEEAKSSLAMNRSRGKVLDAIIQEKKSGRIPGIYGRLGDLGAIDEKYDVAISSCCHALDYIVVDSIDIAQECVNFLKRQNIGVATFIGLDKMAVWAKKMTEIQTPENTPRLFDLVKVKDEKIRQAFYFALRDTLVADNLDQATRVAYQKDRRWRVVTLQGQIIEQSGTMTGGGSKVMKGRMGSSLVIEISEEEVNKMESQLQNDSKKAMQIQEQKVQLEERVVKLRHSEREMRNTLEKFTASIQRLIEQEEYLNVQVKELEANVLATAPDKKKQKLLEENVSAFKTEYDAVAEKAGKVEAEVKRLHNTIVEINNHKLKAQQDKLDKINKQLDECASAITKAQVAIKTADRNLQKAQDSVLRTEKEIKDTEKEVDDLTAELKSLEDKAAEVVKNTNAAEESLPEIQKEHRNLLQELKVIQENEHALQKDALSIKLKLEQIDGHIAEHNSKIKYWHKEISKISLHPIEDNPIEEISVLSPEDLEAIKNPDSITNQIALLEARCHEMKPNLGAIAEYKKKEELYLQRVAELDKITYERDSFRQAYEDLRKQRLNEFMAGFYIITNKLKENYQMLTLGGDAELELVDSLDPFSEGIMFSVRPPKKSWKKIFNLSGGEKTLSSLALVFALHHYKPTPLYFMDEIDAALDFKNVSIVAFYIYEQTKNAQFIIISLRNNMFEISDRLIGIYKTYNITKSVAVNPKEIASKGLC

SMC4 (in recombinant human condensin II), sequence (Q9NTJ3 2-1288): as the sequence (Q9NTJ3 2-1288, chain 2 of 2) above
SMC2 (in recombinant human condensin II), sequence (O95347 whole entry): as the sequence (O95347 whole entry, chain 1 of 2) above

binding result [1]: binds | binding result [2]: binds | binding result [3]: binds | binding result [4]: binds
B1: CAP-H2 (in recombinant human condensin II) (natural protein)
chain: MEDVEARFAHLLQPIRDLTKNWEVDVAAQLGEYLEELDQICISFDEGKTTMNFIEAALLIQGSACVYSKKVEYLYSLVYQALDFISGKRRAKQLSSVQEDRANGVASSGVPQEAENEFLSLDDFPDSRTNVDLKNDQTPSEVLIIPLLPMALVAPDEMEKNNNPLYSRQGEVLASRKDFRMNTCVPHPRGAFMLEPEGMSPMEPAGVSPMPGTQKDTGRTEEQPMEVSVCRSPVPALGFSQEPGPSPEGPMPLGGGEDEDAEEAVELPEASAPKAALEPKESRSPQQSAALPRRYMLREREGAPEPASCVKETPDPWQSLDPFDSLESKPFKKGRPYSVPPCVEEALGQKRKRKGAAKLQDFHQWYLAAYADHADSRRLRRKGPSFADMEVLYWTHVKEQLETLRKLQRREVAEQWLRPAEEDHLEDSLEDLGAADDFLEPEEYMEPEGADPREAADLDAVPMSLSYEELVRRNVELFIATSQKFVQETELSQRIRDWEDTVQPLLQEQEQHVPFDIHTYGDQLVSRFPQLNEWCPFAELVAGQPAFEVCRSMLASLQLANDYTVEITQQPGLEMAVDTMSLRLLTHQRAHKRFQTYAAPSMAQP

binding result [5]: binds | binding result [6]: binds
B2: MBP-MCPH1_(1-435) (domain or fragment)
chain: MAAPILKDVVAYVEVWSSNGTENYSKTFTTQLVDMGAKVSKTFNKQVTHVIFKDGYQSTWDKAQKRGVKLVSVLWVEKCRTAGAHIDESLFPAANMNEHLSSLIKKKRKCMQPKDFNFKTPENDKRFQKKFEKMAKELQRQKTNLDDDVPILLFESNGSLIYTPTIEINSRHHSAMEKRLQEMKEKRENLSPTSSQMIQQSHDNPSNSLCEAPLNISRDTLCSDEYFAGGLHSSFDDLCGNSGCGNQERKLEGSINDIKSDVCISSLVLKANNIHSSPSFTHLDKSSPQKFLSNLSKEEINLQRNIAGKVVTPDQKQAAGMSQETFEEKYRLSPTLSSTKGHLLIHSRPRSSSVKRKRVSHGSHSPPKEKCKRKRSTRRSIMPRLQLCRSEDRLQHVAGPALEALSCGESSYDDYFSPDNLKERYSENLPPESQL
